# Measurements reported in patent US20240360246A1 (BIO Y A S, published 2024).
# Experiments:
# [1] = target: T1, Human YKL-40 also known as Chitinase-3-like protein 1 (CHI3L1) (human, UniProt P36222 22-383); assay: ELISA
# T1 construct: Secreted protein purified from MG63 supernatant or purchased (Catalogue #2599-CH); also called hYKL-40
# Murine YKL-40 = target: T2, Murine YKL-40 (mouse, UniProt Q61362 30-389); assay: ELISA
# T2 construct: Purchased (Catalogue #2649-CH); also called mYKL-40; mouse YKL-40
# [2] = target: T1, Human YKL-40 also known as …; assay: phage ELISA
# [3] = target: T1, Human YKL-40 also known as …; assay: ELISA, plate coated with 2.5 µg/ml hYKL-40
# Procedure: A 96-well ELISA plate were coated with 2.5 μg/ml hYKL-40 or 2.5 μg/ml calmodulin as control. 0.25 μg/ml (8), […] (7), 1 μg/ml (6), 2.5 μg/ml (5), 6.25 μg/ml (4), 12.5 μg/ml (3), 15 μg/ml (2) and 20 μg/ml (1) of the antibodies B3 (SEQ ID NO: 3)-mFc or B10 (SEQ ID NO: 4)-mFc were added.
# [4] = target: T1, Human YKL-40 also known as …; assay: dot blot
# Procedure: A dot blot was performed by adding 0.4 μg and 0.2 μg of hYKL-40, 0.4 μg and 0.2 μg mYKL-40, 0.4 μg and 0.2 μg of calmodulin (negative control) and PBS (negative control) onto the nitrocellulose membrane. The membrane was incubated with B3 (SEQ ID NO: 3)-hFc.
# A dot blot was performed by adding 0.4 μg and 0.2 μg of hYKL-40, 0.4 μg and 0.2 μg mYKL-40, 0.4 μg and 0.2 μg of calmodulin (negative control) and PBS (negative control) onto the nitrocellulose membrane. The area that the solution penetrates was minimized. The membrane was dried for 1 h at room temperature (RT). Afterwards the membrane was blocked in PBS with 0.1% Tween overnight at 4° C. followed by three washing steps with PBS with 0.1% Tween. The membrane was incubated with B3-hFc (1 μg/mL) in blocking buffer for 2 h at RT in a shaker followed by three washing steps with PBS with 0.1% Tween. The membrane was incubated with HRP anti-human secondary antibody for 2 hours at RT in shaker followed by three washing steps with PBS with 0.1% Tween. The western blot was developed with western blotting detection reagent.
# [5] = target: T1, Human YKL-40 also known as …; assay: western blot
# Procedure: For the western blot 0.5 μg hYKL-40 or mYKL-40 were loaded onto a 4-20% SurePAGE, Bis-TRIS gel. The gel was run at 120V for 70 min and afterwards the samples were transferred to a nitrocellulose membrane using iBlot system. The membrane was incubated with 1 μg/ml primary antibody B10 (SEQ ID NO: 4)-hFc.
# T1 sequence (P36222 22-383 limits assumed): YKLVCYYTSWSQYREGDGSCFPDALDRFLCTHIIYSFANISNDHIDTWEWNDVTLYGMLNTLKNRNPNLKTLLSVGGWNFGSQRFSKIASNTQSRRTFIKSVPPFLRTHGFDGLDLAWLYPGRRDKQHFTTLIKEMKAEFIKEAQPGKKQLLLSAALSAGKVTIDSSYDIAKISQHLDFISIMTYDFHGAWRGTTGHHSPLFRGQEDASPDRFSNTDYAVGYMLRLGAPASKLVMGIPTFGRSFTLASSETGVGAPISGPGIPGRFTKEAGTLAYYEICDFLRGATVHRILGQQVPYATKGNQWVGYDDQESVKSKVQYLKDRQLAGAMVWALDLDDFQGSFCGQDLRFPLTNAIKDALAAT
# T2 sequence (Q61362 30-389 limits assumed): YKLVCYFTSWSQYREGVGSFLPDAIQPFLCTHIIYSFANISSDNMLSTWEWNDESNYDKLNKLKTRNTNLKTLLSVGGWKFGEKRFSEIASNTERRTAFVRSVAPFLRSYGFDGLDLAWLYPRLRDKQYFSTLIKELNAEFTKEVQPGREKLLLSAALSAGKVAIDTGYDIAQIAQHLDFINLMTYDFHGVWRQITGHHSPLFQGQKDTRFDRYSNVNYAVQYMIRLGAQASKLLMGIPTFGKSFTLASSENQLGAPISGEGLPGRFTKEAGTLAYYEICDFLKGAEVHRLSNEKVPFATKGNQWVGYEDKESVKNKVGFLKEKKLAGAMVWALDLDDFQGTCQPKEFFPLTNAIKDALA
binder,measurement,setting,value
"H7 antibody comprising a VL of SEQ ID NO: 14 and a VH of SEQ ID NO: 15 fused to human Fc regions (antibody, human IgG1, kappa, V domains shown, Chimeric mouse/human antibody; also called H7-hFc) VH: EVQLQQSGAELVKPGASVKLSCTASGFNIKDTYMHWVKQRPEQGLEWIGRIDPANGNTIYASKFQGKATITRDTSSNTAYMQLSSLTSGDTAVYYCTRGVYYYGGSFYAMDYWGQGTSVTVSS VL: DIQMTQSPASLSASVGETVTITCGASENIYGALNWYQRKQGKSPQLLIYGATTLADGMSSRFSGSGSGRQYSLKISSLHPDDVATYYCQNVLTTPWTFGGGTKLEIKT",binding result,[1],binds
same,binding result,Murine YKL-40,binds
"B3 predator (phage antibody clone B3) (antibody, V domains shown) VH: EVQLLESGGGLVQPGGSLRLSCAASGFRDSDEDMGWVRQAPGKGLEWVSSISAPGGSTYYADSVKGRFTISRDNSKNTLYLQMNSLRAEDTAVYYCASHYNYGHWFDYWGQGTLVTVSS",binding result,[2],binds
"B10 predator (phage antibody clone B10) (antibody, V domains shown) VH: EVQLLESGGGLVQPGGSLRLSCAASGFRDSDEDMGWVRQAPGKGLEWVSSISADSGSTYYADSVKGRFTISRDNSKNTLYLQMNSLRAEDTAVYYCASDYNYWYWFDYWGQGTLVTVSS",binding result,[2],binds
"B3 (SEQ ID NO: 3) fused to murine Fc (mFc) (Fc fusion, VH domain fused to murine Fc; no linker stated; also called B3-mFc; B3 mouse) MAEVQLLESGGGLVQPGGSLRLSCAASGFRDSDEDMGWVRQAPGKGLEWVSSISAPGGSTYYADSVKGRFTISRDNSKNTLYLQMNSLRAEDTAVYYCASHYNYGHWFDYWGQGTLVTVSSAARSPPLKECPPCAAPDLLGGPSVFIFPPKIKDVLMISLSPMVTCVVVDVSEDDPDVQISWFVNNVEVHTAQTQTHREDYNSTLRVVSALPIQHQDWMSGKEFKCKVNNRALPSPIEKTISKPRGPVRAPQVYVLPPPAEEMTKKEFSLTCMITGFLPAEIAVDWTSNGRTEQNYKNTATVLDSDGSYFMYSKLRVQKSTWERGSLFACSVVHEGLHNHLTTKTISRSLGK",binding result,[3],binds
"B10 (SEQ ID NO: 4) fused to mFc (Fc fusion, VH domain fused to murine Fc; no linker stated; also called B10-mFc; B10 mouse) MAEVQLLESGGGLVQPGGSLRLSCAASGFRDSDEDMGWVRQAPGKGLEWVSSISADSGSTYYADSVKGRFTISRDNSKNTLYLQMNSLRAEDTAVYYCASDYNYWYWFDYWGQGTLVTVSSAARSPPLKECPPCAAPDLLGGPSVFIFPPKIKDVLMISLSPMVTCVVVDVSEDDPDVQISWFVNNVEVHTAQTQTHREDYNSTLRVVSALPIQHQDWMSGKEFKCKVNNRALPSPIEKTISKPRGPVRAPQVYVLPPPAEEMTKKEFSLTCMITGFLPAEIAVDWTSNGRTEQNYKNTATVLDSDGSYFMYSKLRVQKSTWERGSLFACSVVHEGLHNHLTTKTISRSLGK",binding result,[3],binds
"B3 (SEQ ID NO: 3) fused to a human Fc (hFc) (Fc fusion, VH domain fused to human Fc; no linker stated; also called B3-hFc) MAEVQLLESGGGLVQPGGSLRLSCAASGFRDSDEDMGWVRQAPGKGLEWVSSISAPGGSTYYADSVKGRFTISRDNSKNTLYLQMNSLRAEDTAVYYCASHYNYGHWFDYWGQGTLVTVSSAAVECPPCPAPPVAGPSVFLFPPKPKDTLMISRTPEVTCVVVDVSHEDPEVQFNWYVDGMEVHNAKTKPREEQFNSTFRVVSVLTVVHQDWLNGKEYKCKVSNKGLPAPIEKTISKTKGQPREPQVYTLPPSREEMTKNQVSLTCLVKGFYPSDIAVEWESNGQPENNYKTTPPMLDSDGSFFLYSKLTVDKSRWQQGNVFSCSVMHEALHNHYTQKSLSLSPGK",binding result,[4],binds
"B10 (SEQ ID NO: 4) fused to a human Fc (Fc fusion, VH domain fused to human Fc; no linker stated; also called B10-hFc) MAEVQLLESGGGLVQPGGSLRLSCAASGFRDSDEDMGWVRQAPGKGLEWVSSISADSGSTYYADSVKGRFTISRDNSKNTLYLQMNSLRAEDTAVYYCASDYNYWYWFDYWGQGTLVTVSSAAVECPPCPAPPVAGPSVFLFPPKPKDTLMISRTPEVTCVVVDVSHEDPEVQFNWYVDGMEVHNAKTKPREEQFNSTFRVVSVLTVVHQDWLNGKEYKCKVSNKGLPAPIEKTISKTKGQPREPQVYTLPPSREEMTKNQVSLTCLVKGFYPSDIAVEWESNGQPENNYKTTPPMLDSDGSFFLYSKLTVDKSRWQQGNVFSCSVMHEALHNHYTQKSLSLSPGK",binding result,[5],binds
